This note sets out measurements from patent publication US20230002494A1 (SANYOU BIOPHARMACEUTICALS, published 2023).

Positions count from the first letter of the chain named.

B1: NB22D-21-94 (Fc fusion)
chain: EVQLVESGGGLVQPGGSLRLSCAASRTAGNIHGMHWYRQAPGKGREWVGSIFITGNTIVTDSVKGRFTISRDNAKNTLYLQMNTLRAEDTAVYYCAADVRGYGRAWGQGTTVTVSS
notes: not shown: 'full-length antibodies' were constructed
B2: NB22D-21-45-106 (Fc fusion)
chain: B1 chain with T27R, A28W, G29S, I51R
notes: as for B1
B3: NB22D-21-4 VHH-Fc chimeric antibody protein (Fc fusion)
chain: B1 chain with A28D, G29R, H32N, G33T, S50T, T54D, G55L, R100S
notes: not shown: human IgG1 Fc fragment, its N-terminus linked to the C-terminus of the VHH
B4: NB22D-21-123 (Fc fusion)
chain: B1 chain with R26P, G29S, S50M, N56L, R100S
notes: as for B1
B5: NB22D-21-109 (Fc fusion)
chain: B1 chain with N30Y, S50M, I53G, T54W
notes: as for B1
B6: NB22D-21-154 (Fc fusion)
chain: B1 chain with G29S, I31A, H32M, S50M, I53R, T54D
notes: as for B1
B7: control antibody KN035 (antibody, V domains shown)
VH: QVQLVESGGGLVQPGGSLRLSCAASGFTFSRRCKAWFRQAPGKERERVAKILTTSGSTYLADSVKGRFTISRDNSKNTVYLQMNSLRAEDTAVYYCAADSFEDPTCTLVTSSGAFQYWGQGTLVTVSS
notes: also called KN035 (control); positive control KN035
B8: NB22D-21-huVH2 (Fc fusion, not shown: a dimerising Fc or GST)
chain: B1 chain with A28D, G29S, H32N, S50T, T54D, R100S
notes: Humanized form of NB22D-21; also called humanized antibody NB22D-21-huVH2; D21-Vh2
B9: NB22D-21-huVH1 (Fc fusion, not shown: a dimerising Fc or GST)
chain: B1 chain with A24H, A28D, G29S, H32N, S50T, T54D, R100S
notes: Humanized form of NB22D-21; also called humanized antibody NB22D-21-huVH1
B10: NB22D-21-24 VHH-Fc chimeric antibody protein (Fc fusion)
chain: B1 chain with A28F, G29S, H32F, S50T, R100S
notes: as for B3
B11: NB22D-21-8 VHH-Fc chimeric antibody protein (Fc fusion)
chain: B1 chain with A28Y, G29S, H32Y, S50T, T54G, G55S, R100S
notes: as for B3
B12: NB22D-21-17 VHH-Fc chimeric antibody protein (Fc fusion)
chain: B1 chain with A28G, G29S, H32Y, S50T, T54D, G55W, R100S
notes: as for B3
B13: SY01-D21-8 (VHH lysate) (VHH)
VHH: B1 chain with A28Y, G29S, H32Y, S50T, T54G, G55S, R100S
B14: SY01-D21-24 (VHH lysate) (VHH)
VHH: B1 chain with A28F, G29S, H32F, S50T, R100S
B15: 47 (VHH)
VHH: B1 chain with A28L, G29S, H32R, S50T, T54D, G55L, R100S
notes: also called SY01-D21-47
B16: SY01-NB-027-M (VHH lysate) (VHH)
VHH: EVQLVESGGGLVQPGGSLRLSCAHSRTDSNINSMHWYRQAPGKGREWVGTWFIDGNTIVTDSVKGRFTISRDNAKNTLYLQMNTLRAEDTAVYYCAADEWMYGRAWGQGTTVTVSS
notes: Tested as VHH lysate of a monoclone from the phage display vector
B17: SY01-201 (VHH lysate) (VHH)
VHH: B1 chain with A24H, A28D, G29S, S50T, T54D, G55L, R100S
notes: as for B16
B18: SY01-208 (VHH lysate) (VHH)
VHH: B16 VHH with N32F, S33G, W51I, G55A, E99V, W100S, M101G
notes: as for B16

T1 sequence (Q9NZQ7 19-290): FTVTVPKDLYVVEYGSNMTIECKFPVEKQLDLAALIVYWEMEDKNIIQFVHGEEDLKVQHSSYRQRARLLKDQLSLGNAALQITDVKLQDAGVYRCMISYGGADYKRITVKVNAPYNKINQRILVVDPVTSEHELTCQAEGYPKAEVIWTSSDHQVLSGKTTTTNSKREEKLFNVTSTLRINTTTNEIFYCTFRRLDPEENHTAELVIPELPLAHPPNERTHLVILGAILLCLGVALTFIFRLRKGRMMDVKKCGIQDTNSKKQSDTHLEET

The first assay addresses T1, human PD-L1 (full-length, on cells) (human, UniProt Q9NZQ7 19-290).
T1 construct: whole, on cells; Expressed on CHO-s cells; also called human PD-L1-CHO; PD-L1-CHO
Description: FACS blocking on huPDL1-CHO cells; blocked ligand PD-1-Biotin 1 µg/mL; MFI = bound PD-1.
As to B1, the “IC50 (read off the curve)” value is approximately 0.2 µg/mL.
On the same count and under the same terms, under B2 stands approximately 0.2 µg/mL; under B3, approximately 0.2 µg/mL.
Still for that read-out and setting: to B4 belongs approximately 0.2 µg/mL; to B5, approximately 0.2 µg/mL; to B6, approximately 0.2 µg/mL.
The same measure, in the same setting: under B7 stands approximately 0.2 µg/mL.

The next assay deals with T1, human PD-L1 (full-length, on cells). The assay can be described thus: FACS on human PD-L1-CHO cells, PE anti-human IgG Fc. The source says: 1) collecting the cultured human PD-L1-CHO cells, centrifuging the collected cells at 300 g to remove the supernatant, resuspending the cells in a formulated FACS buffer and counting the cells, and adjusting the density of the cell suspension to 2×10⁶ cells/mL;
A word on the EC50 (read off the curve): it is the concentration that produces a half-maximal response. In the case of B8, the “EC50 (read off the curve)” value is approximately 0.1 µg/mL.
Same read-out and setting: under B9 stands approximately 0.1 µg/mL.
In the case of B7, the “EC50 (read off the curve)” value is approximately 0.1 µg/mL.

A further assay has as its target T2, rhesus monkey PD-L1 (full-length, on CHO-s cells) (rhesus monkey, UniProt F6VEW6 19-290).
T2 construct: whole, on cells; also called monkey PD-L1-CHO
The assay can be described thus: FACS, monkey PD-L1-CHO cells. The source says:
In order to evaluate the cross-reactivity of the VHH-Fc candidate antibodies to monkey PD-L1 and mouse PD-L1, an FACS method is used to detect the binding activity thereof to the mouse and rhesus monkey PD-L1 protein on cells.
By EC50 is commonly meant the midpoint of the concentration-response curve. On to B7, for which it took 0.21 µg/mL to reach a half-maximal effect (EC50).

For a further assay, the target named is T1, human PD-L1 (full-length, on cells). Description: FACS competition, human PD-L1-CHO cells, competitor biotin-labeled PD-1-Fc 1 µg/mL.
Usually IC50 stands for the point on the concentration scale where inhibition reaches its midpoint. Molecule B7 had an IC50 of 0.39 µg/mL.

The target is the same in the next assay. Described as above. This is another data set of the same source.
Molecule B8 yielded an IC50 of 1 µg/mL.
On the same count and under the same terms, to B10 belongs 0.2 µg/mL; to B3, 0.3 µg/mL.

For another assay the target is unchanged. The assay can be described thus: FACS, human PD-L1-CHO cells. The source says:
(§1) In order to evaluate 4 derisked VHH-Fc candidate antibodies, an FACS method is used to detect the binding activities thereof to cell expressed human PD-L1 and monkey PD-L1 proteins.
(In general: Flow cytometry measures light scatter and fluorescence of single cells or particles in a stream.)
In turn, B8 had an EC50 of 0.72 µg/mL.
The same measure, in the same setting: to B10 belongs 0.14 µg/mL.
As to B3, the EC50 turned out to be 0.21 µg/mL.
The same measure, in the same setting: to B11 belongs 0.26 µg/mL.
B12 had an EC50 of 1.73 µg/mL.

In another assay the target is T3, mouse PD-L1 (full-length, on CHO-s cells) (mouse, UniProt Q9EP73 19-290).
T3 construct: whole, on cells; also called mouse PD-L1-CHO
T3 sequence (Q9EP73 19-290): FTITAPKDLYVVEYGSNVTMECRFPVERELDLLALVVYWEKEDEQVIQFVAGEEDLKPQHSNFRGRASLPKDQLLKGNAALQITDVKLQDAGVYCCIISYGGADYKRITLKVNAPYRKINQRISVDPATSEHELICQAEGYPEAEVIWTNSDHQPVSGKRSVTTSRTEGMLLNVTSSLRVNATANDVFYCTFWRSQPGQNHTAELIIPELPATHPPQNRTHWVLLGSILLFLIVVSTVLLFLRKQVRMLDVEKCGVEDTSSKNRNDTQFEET
The assay can be described thus: FACS on mouse PD-L1-CHOK cells.
With B2, the binding result was “binds”.
On the same count and under the same terms, to B3 belongs “no binding (tested: 20 µg/mL)”; to B4, “binds”.
For the molecule B5, the “EC50 (read off the curve)” value is approximately 1 µg/mL.
Take B6: the binding result was “binds”.

A further assay concerns the target T1, human PD-L1 (full-length, on cells). Description: FACS competition, human PD-L1-CHO cells, competitor biotin-labeled CD80 1 µg/mL.
Consider B7, for which the IC50 was determined as 0.631 µg/mL.

A further assay has the same target. The assay can be described thus: FACS on huPD-L1-CHOK cells.
On to B1, for which the “EC50 (read off the curve)” value is approximately 0.2 µg/mL.
The same measure, in the same setting: to B2 belongs approximately 0.2 µg/mL; to B3, approximately 0.2 µg/mL; to B4, approximately 0.2 µg/mL.
Same read-out and setting: to B5 belongs approximately 0.2 µg/mL; to B6, approximately 0.2 µg/mL.
On the same count and under the same terms, to B7 belongs approximately 0.2 µg/mL.

Another assay concerns the target T2, rhesus monkey PD-L1 (full-length, on …). The assay can be described thus: FACS, monkey PD-L1-CHO cells. The source holds these as a separate data set.
From the text: as §1
Consider B8, for which it took 1.82 µg/mL to reach a half-maximal effect (EC50).
On the same count and under the same terms, to B10 belongs 0.39 µg/mL; to B3, 0.3 µg/mL; to B11, 0.7 µg/mL.
On the same count and under the same terms, under B12 stands 3.25 µg/mL.

The target of a further assay is T1, human PD-L1 (full-length, on cells). The assay can be described thus: FACS, human PD-L1-CHO cells. This is another data set of the same source.
Molecule B7 returned an EC50 of 0.39 µg/mL.

Another assay shares this target. The assay can be described thus: FACS blocking on PD-L1-CHO cells, lysate samples; the blocked ligand is not named on the sheet or in Example 17.
As for B13, the “IC50 (read off the curve)” value is approximately 0.3 µg/mL.
Still for that read-out and setting: to B14 belongs approximately 0.5 µg/mL; to B15, approximately 0.3 µg/mL.

A further assay has the same target. The assay can be described thus: FACS on PD-L1-CHO cells, anti-Llama IgG FITC.
B16: the binding result is given as “binds”.
In the case of B17, the binding result is given as “binds”.
Regarding B18, the binding result is given as “binds”.
